Drawing on paper PMC5716075, “Conserved asymmetry underpins homodimerization of Dicer-associated double-stranded RNA-binding proteins” (Nucleic Acids Research, 2017), this text covers screen value for three variants.

Sequences and labels used below:
B1: Loqs-D3 (Loquacious residues 392-463, dsRBD 3), wild type [Drosophila] / itself (parent)
chain: IDYIKLLGEIATENQFEVTYVDIEEKTFSGQFQCLVQLSTLPVGVCHGSGPTAADAQRHAAQNALEYLKIMT
B2: PACT-D3 (PACT residues 239-313, core dsRBD 3), wild type [human] / itself (parent)
chain: TDYIQLLSEIAKEQGFNITYLDIDELSANGQYQCLAELSTSPITVCHGSGISCGNAQSDAAHNALQYLKIIAERK
B3: PACT-Ext-D3 (PACT residues 208-313, dsRBD 3 with the conserved N-terminal extension), wild type [human] / itself (parent)
chain: GHSLGCTWHSLRNSPGEKINLLKRSLLSIPNTDYIQLLSEIAKEQGFNITYLDIDELSANGQYQCLAELSTSPITVCHGSGISCGNAQSDAAHNALQYLKIIAERK

One assay covers variants of B1. The assay is described as follows: SEC-MALLS. The following applies: with itself.
Regarding IDYIKLLGEIATENQFEVTYVDIEEKTFSGQFQCRVQLSTLPVGVCHGSGPTAADAQRHAAQNALEYLKIMT [chain 1 L35R], the screen value was 8 kDa.

In the next assay the parent is B2. As to the kind of experiment: SEC-MALLS. The following applies: with itself.
As to TDYIQLLSEIAKEQGFNITYLDIDELSANGQYQCRAELSTSPITVCHGSGISCGNAQSDAAHNALQYLKIIAERK [chain 1 L35R], the screen value came out at 8.8 kDa.

The variants in a further assay derive from B3. As to the kind of experiment: SEC-MALLS. The following applies: with itself.
As to GHSLGCTWHSLRNSPGEKINLLKRSLLSIPNTDYIQLLSEIAKEQGFNITYLDIDELSANGQYQCRAELSTSPITVCHGSGISCGNAQSDAAHNALQYLKIIAERK [chain 1 L66R], the screen value worked out at 12.3 kDa.
